Experimental data from patent US20030023032A1.

Biological target: sigma 54 (sigma^54) transcription factor from Vibrio harveyi, product of the rpoN gene (Vibrio harveyi)
Assay: cell-based or functional assay

Substance	% W.T. Lux (bioluminescence per cell at high cell density); strain JAF548, luxO D47E, wild type rpoN present (% of wild type)	% W.T. Lux; strain BNL244, luxO D47E, rpoN::Cm^r (sigma^54 absent) (% of wild type)	% W.T. Lux; strain BNL244, luxO D47E, rpoN::Cm^r, with Plac-rpoN in trans (sigma^54 restored) (% of wild type)	Siderophore units (chromazurol S assay); strain JAF548, luxO D47E, wild type rpoN present (siderophore units)	Siderophore units; strain BNL244, luxO D47E, rpoN::Cm^r (sigma^54 absent) (siderophore units)	Siderophore units; strain BNL244, luxO D47E, rpoN::Cm^r, with Plac-rpoN in trans (sigma^54 restored) (siderophore units)	% W.T. Lux; strain BNL248, luxN L166R, rpoN::Cm^r (sigma^54 absent) (% of wild type)	% W.T. Lux; strain BNL248, luxN L166R, rpoN::Cm^r, with Plac-rpoN in trans (sigma^54 restored) (% of wild type)	% W.T. Lux; strain JAF549, luxN L166R, wild type rpoN present (% of wild type)
LuxO D47E ("locked" form mimicking activated phospho-LuxO), Vibrio harveyi (from UniProt P0C5S5 1-453)	0.002	77	1.4	50	4	25			
phospho-LuxO (wild type LuxO, constitutively phosphorylated in luxN L166R strains), Vibrio harveyi (from UniProt P0C5S5 1-453)							55	1.1	0.004
